Assays:
Assay in all cases: SPR, TREM-1 variant captured by anti-His, Fab as analyte
[1] = biological target: T1, cTREM-1-Cmyc2-His6 (construct 0238), cynomolgus TREM-1 wt (cynomolgus monkey)
T1 construct: ECD with C-terminal cmyc2-His6 tag; also called wt cTREM-1
T1 chain: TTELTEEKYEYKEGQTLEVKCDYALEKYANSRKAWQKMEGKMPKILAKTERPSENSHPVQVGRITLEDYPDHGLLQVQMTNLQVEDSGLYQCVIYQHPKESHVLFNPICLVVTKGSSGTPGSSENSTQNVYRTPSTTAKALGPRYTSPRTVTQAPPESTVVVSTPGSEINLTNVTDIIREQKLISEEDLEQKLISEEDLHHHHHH
Method: (§1) Binding studies were performed on a ProteOn Analyzer that measures molecular interactions in real time through surface plasmon resonance. Experiments were run at 25° C. and the samples were stored at 15° C. in the sample compartment. The signal (RU, response units) reported by the ProteOn is directly correlated to the mass on the individual sensor chip surfaces in six parallel flow cells. Anti-His monoclonal antibody was immobilised onto 6 parallel flow cells of a GLM sensor chip using a 1:1 mixture of 0.4 M EDAC [1-ethyl-3-(3-dimethylaminopropyl) carbodiimide hydrochloride] and 0.1 M Sulfo-NHS [N-hydroxysulfosuccinimide]. […] Immobilisation was performed with all steps in horizontal direction. […] Cell culture medium from HEK 293 cells expressing wild type or different mutated variants of human or cynomolgus TREM-1 ECD was diluted 40-60 times in running buffer (10 mM HEPES, 150 mM NaCl, 3 mM EDTA, 0.05% surfactant P20, pH 7.4). TREM-1 proteins were injected over immobilised anti-His capture antibody in the vertical direction at 30 μl/min for 60 s. […] Each Fab was injected over parallel flow cells in the horizontal direction to allow for kinetic analysis of binding to TREM-1 variants captured by anti-His antibody. Prior to injection each Fab was diluted to 0, 5.5 (in one experiment), 16.7 and 50 nM in running buffer, and injected at 100 μl/min for 250 s (association time). The dissociation time following these injections was monitored for 10 minutes. The GLM chip was regenerated after each interaction cycle of TREM-1 and Fab via two 18 s injections of 10 mM Glycine and 50 mM NaOH at 100 μl/min. This regeneration step removed the TREM-1 variants and any bound Fab from the anti-His antibody surface, and allowed for the subsequent binding of the next interaction pair.

[2] = biological target: T2, cynomolgus TREM-1 partly humanised (construct 0239) (cynomolgus monkey)
T2 chain: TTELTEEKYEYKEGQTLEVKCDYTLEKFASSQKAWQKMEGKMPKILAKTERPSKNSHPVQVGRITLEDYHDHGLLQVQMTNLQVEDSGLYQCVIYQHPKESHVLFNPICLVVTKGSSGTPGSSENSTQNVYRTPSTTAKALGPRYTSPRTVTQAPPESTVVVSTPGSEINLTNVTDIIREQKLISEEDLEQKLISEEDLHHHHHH
Method: as §1

[3] = biological target: T3, cynomolgus TREM-1 partly humanised with back mutation 1 (construct 0240) (cynomolgus monkey)
T3 construct: Printed A44A = A44 kept
T3 chain: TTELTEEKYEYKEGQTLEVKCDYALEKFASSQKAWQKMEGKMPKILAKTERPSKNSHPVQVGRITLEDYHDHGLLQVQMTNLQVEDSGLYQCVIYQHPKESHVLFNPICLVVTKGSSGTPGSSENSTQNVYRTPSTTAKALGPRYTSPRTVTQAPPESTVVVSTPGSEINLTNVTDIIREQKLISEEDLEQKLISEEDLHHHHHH
Method: as §1

[4] = biological target: T4, cynomolgus TREM-1 partly humanised with back mutation 2 (construct 0241) (cynomolgus monkey)
T4 construct: Printed Y48Y = Y48 kept
T4 chain: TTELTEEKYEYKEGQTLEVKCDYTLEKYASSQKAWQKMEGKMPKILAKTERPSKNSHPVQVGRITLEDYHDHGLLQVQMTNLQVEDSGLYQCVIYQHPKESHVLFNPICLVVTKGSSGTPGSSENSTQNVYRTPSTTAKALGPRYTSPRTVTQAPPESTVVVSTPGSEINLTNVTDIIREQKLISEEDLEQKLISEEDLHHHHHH
Method: as §1

[5] = biological target: T5, cynomolgus TREM-1 partly humanised with back mutation 3 (construct 0242) (cynomolgus monkey)
T5 construct: Printed N50N = N50 kept
T5 chain: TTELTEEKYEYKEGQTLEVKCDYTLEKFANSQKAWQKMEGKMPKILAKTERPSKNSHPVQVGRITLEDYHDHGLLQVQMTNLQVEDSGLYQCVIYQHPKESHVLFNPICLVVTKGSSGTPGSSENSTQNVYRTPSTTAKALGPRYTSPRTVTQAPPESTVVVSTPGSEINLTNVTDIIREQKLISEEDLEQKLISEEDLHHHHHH
Method: as §1

[6] = biological target: T6, cynomolgus TREM-1 partly humanised with back mutation 4 (construct 0243) (cynomolgus monkey)
T6 construct: Printed R52R = R52 kept
T6 chain: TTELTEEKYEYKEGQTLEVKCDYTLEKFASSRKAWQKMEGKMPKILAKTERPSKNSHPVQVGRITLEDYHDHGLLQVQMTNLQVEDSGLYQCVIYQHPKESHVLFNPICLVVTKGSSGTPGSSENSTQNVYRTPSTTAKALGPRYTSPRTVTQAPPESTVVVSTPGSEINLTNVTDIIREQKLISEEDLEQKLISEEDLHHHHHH
Method: as §1

[7] = biological target: T7, A24T/Y28F/N30S/R32Q/P70H-cTREM-1-Cmyc2-His6 (construct 0244), partly humanised with back mutation 5 (cynomolgus monkey)
T7 construct: the entry already carries the mutations
T7 chain: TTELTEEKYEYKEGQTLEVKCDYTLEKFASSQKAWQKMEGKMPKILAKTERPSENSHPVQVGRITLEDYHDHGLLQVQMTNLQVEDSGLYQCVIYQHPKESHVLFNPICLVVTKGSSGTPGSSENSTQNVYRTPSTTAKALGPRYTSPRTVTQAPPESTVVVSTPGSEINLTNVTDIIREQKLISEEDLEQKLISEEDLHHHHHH
Method: as §1

[8] = biological target: T8, A24T/Y28F/N30S/R32Q/E54K-cTREM-1-Cmyc2-His6 (construct 0245), partly humanised with back mutation 6 (cynomolgus monkey)
T8 construct: the entry already carries the mutations
T8 chain: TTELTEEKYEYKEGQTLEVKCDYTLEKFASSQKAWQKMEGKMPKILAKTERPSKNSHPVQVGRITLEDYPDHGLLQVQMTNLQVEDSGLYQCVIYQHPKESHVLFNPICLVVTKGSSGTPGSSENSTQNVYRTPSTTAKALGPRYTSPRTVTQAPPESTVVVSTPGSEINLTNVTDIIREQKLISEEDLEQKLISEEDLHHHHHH
Method: as §1

Kd [1]: 1 nM | Kd [2]: 2 nM | Kd [3]: 2 nM | Kd [4]: 2 nM | Kd [5]: 1 nM | binding result [6]: no binding (tested: up to 50 nM Fab) | Kd [7]: 1 nM | Kd [8]: 1 nM
B1: Fab region of mAb 0170 (Fab, V domains shown)
VH: EVQLVESGGGLVQPGGSLKLSCAASGFTFSTYAMHWVRQASGKGLEWVGRIRTKSSNYATYYAASVKGRFTISRDDSKNTAYLQMNSLKTEDTAVYYCTRDMGIRRQFAYWGQGTLVTVSS
VL: DIVLTQSPDSLAVSLGERATINCRASESVDTFDYSFLHWYQQKPGQPPKLLIYRASNLESGVPDRFSGSGSGTDFTLTISSLQAEDVAVYYCQQSNEDPYTFGQGTKLEIKR
notes: also called 0170 Fab; Fab 0170
